Laboratory results reported in PMC6447653.

Target: T1, AtWRI1 (Arabidopsis thaliana) (UniProt Q6X5Y6)
T1 sequence: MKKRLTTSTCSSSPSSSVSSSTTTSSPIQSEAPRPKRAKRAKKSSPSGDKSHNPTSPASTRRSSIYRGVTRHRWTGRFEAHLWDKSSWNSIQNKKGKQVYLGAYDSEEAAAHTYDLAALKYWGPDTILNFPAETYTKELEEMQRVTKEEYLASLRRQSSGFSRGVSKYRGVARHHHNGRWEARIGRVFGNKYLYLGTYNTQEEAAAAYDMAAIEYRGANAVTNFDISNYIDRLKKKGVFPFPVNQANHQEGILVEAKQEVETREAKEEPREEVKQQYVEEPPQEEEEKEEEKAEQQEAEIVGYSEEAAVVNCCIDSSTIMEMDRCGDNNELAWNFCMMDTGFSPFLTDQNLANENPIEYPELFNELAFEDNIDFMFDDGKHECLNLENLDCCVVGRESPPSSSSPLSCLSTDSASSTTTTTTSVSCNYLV
Assay: EMSA
Settings: fEMSA: 150 mM KCl, 0.1 mM DTT, 10 mM Tris pH 7.4, 150 ng poly(dI-dC), 50 ng Cy5 probe, 10 ul, 30 min, room temperature

Sequence: TAAAAGAGTTGGGTTTCTTCGTAAGCATCGAAATCAGATTTCTTTACCAAAGAAAAAATAAAGAAAAGAAAAATATAGCAAGTACACTGCATTTCAACACTCTCATATCTCTCCTTCCTACTTCCTCGGTTTCATCGTCCACTGTCTCAA (double strand) [BCCP2up (-2/-151)]
- binding: binds
